We go through 1 substance from patent US20180105597A1.

Some results are limits rather than exact numbers.

Broadly, the EC50 is the concentration needed to bring the measured effect to its halfway point. A higher EC50 goes with weaker potency.

The target of assay [1] is human C1q (human) (UniProt P02745). Put plainly: solid phase C1q binding ELISA, antibody coated in a titration, C1q added.
The target in assay [2] is FcγR1 (human) (UniProt P12314). Description: solid phase binding assay (Meso Scale), receptor coated, antibody titrated.
The target in assay [3] is FcγR2a(H) (human) (UniProt P12318). The assay is described as above.
For assay [4], the target named is FcγR3a (V) (human) (UniProt P08637). The assay is described as above.
Assay [5] has as its target human C1q (human) (UniProt P02745). Description: cell-based or functional assay.

Chain of human C1q (human) (P02745 23-245 limits assumed, chain 1 of 3): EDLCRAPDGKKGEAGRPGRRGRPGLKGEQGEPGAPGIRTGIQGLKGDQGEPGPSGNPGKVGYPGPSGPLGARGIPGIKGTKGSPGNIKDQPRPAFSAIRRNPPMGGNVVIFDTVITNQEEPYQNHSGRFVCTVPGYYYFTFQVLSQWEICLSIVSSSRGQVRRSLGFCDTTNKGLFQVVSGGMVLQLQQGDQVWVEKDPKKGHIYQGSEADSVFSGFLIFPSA
Chain of human C1q (human) (P02746 28-253 limits assumed, chain 2 of 3, further chain): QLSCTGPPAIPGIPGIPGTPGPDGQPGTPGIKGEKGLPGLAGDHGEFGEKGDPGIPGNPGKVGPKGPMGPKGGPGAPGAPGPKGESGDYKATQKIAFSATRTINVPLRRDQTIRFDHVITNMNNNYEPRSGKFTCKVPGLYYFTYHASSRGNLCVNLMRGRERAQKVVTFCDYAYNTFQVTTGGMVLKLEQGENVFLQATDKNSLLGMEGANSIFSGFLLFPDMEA
Chain of human C1q (human) (P02747 29-245 limits assumed, chain 3 of 3, further chain): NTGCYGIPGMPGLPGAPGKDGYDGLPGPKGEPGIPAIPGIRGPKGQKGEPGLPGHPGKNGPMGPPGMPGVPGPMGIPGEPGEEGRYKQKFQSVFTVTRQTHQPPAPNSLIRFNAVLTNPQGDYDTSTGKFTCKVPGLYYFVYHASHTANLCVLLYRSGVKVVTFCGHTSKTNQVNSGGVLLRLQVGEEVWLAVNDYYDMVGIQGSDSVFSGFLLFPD
Chain of FcγR2a(H) (human) (P12318 36-218): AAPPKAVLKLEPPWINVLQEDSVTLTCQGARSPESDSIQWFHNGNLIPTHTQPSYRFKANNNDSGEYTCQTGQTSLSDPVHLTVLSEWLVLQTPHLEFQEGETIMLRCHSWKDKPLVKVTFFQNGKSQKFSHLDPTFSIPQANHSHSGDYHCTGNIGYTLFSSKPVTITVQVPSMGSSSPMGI
Chain of FcγR3a (V) (human) (P08637 17-208 F176V): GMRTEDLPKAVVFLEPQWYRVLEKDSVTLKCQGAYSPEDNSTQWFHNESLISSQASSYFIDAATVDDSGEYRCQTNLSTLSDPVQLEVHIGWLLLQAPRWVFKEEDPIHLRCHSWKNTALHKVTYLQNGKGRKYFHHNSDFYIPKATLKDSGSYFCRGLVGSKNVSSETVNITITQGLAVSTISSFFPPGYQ
Chain of FcγR1 (human) (P12314 16-288): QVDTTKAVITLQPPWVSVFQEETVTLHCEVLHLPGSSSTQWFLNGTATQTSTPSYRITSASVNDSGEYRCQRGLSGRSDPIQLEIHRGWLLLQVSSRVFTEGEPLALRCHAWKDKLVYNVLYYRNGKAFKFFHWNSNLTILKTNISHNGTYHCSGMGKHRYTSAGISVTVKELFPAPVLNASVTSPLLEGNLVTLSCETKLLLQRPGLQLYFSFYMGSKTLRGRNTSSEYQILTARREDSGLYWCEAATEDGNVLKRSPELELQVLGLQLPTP

In assay [1], LY3022859 (antibody) displayed an EC50 of 19 nM. Moreover, in assay [2], the EC50 worked out at 0.58 nM. Besides, in assay [3], the EC50 was found to be 48 nM. Also, the concentration giving a half-maximal response (EC50) in assay [4] worked out at 5.7 nM. In assay [5], this substance gave a CDC activity EC50 (nM), BxPC3 target cells, human complement greater than 200 nM; a CDC activity EC50 (nM), HEK293 target cells, human complement greater than 200 nM; a CDC activity EC50 (nM), MDA-MB-231 target cells, human complement greater than 200 nM; a CDC activity EC50 (nM), TGFRβII-HEK target cells, human complement greater than 200 nM.
